This experiment addresses T1, Spindlin1_50–262 (Homo sapiens, UniProt Q9Y657).
T1 construct: The Spindlin1_50–262 samples were dialyzed against the buffer; GST (N, cleaved yes); made in house; host or cells: Escherichia coli BL21 (DE3)
In words: Thermal shift assay (TSA), Spindlin1_50–262 mixed with histone H3 peptides. In kind it is binding. The following applies: the row's label is the comparator peptide. On the procedure:
Recombinant proteins were overexpressed in Escherichia coli BL21 (DE3) strain. […] After cell lysis and centrifugation, the supernatant was loaded onto a GST affinity column and washed with lysis buffer. Then the bound proteins were subjected to on-column cleavage by PreScission Protease overnight. […] Purified peak fractions were concentrated to 25 mg/ml in 150 mM NaCl, 20 mM Tris, pH 8.0, aliquoted, and stored at −80°C for future use. The TSA was performed with a CFX96 real-time PCR instrument (Bio-Rad). […] All solutions were prepared in 25 µl of the same buffer (20 mM Hepes Na, pH 7.5, 150 mM NaCl) and incubated at 4°C for 1 h. During TSA assays, samples were heated from 25°C to 90°C at a rate of 0.5°C per minute. Protein denaturation progress was monitored by increased fluorescence signal of Sypro Orange, which captures the exposure of the protein hydrophobic core during thermal unfolding. Changes in the fluorescence signal were recorded and analyzed by the software CFX-Manager (Bio-Rad). When 50% of the protein is denatured, the folding and unfolding states of the protein are in dynamic equilibrium, and the corresponding temperature is the protein's melting temperature.

T1 sequence (Q9Y657 50-262): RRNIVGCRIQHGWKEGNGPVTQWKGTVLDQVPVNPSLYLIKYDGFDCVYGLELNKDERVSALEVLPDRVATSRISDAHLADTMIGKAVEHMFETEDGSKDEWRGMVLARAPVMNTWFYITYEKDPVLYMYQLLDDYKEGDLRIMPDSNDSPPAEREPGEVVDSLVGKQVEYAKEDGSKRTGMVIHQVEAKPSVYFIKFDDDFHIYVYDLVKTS

“unmodified H3_1–20: unmodified synthetic histone H3 residues 1–20 peptide”: the “amount by which the Tm with H3_1–20 “K4me3-K9me3” ([…]) is greater than the Tm with this peptide” value came to 15.0 °C.

Take “H3_1–20 K9me3: synthetic histone H3 residues 1–20 peptide with K9me3”: the “amount by which the Tm with H3_1–20 “K4me3-K9me3” ([…]) is greater than the Tm with this peptide” value worked out at 12.0 °C.

The values are drawn from paper PMC7864079, “Molecular basis for histone H3 “K4me3-K9me3/2” methylation pattern readout by Spindlin1” (The Journal of Biological Chemistry, 2021).
